Measured values: FireProtDB (doi:10.1006/jmbi.2000.4053)

Settings: Homo sapiens, pH 5, 25 °C
[1] = GdnHCl, Fluorescence, Sodium acetate 50mM, transition: 2, structure 1TEN
[2] = Urea, CD, Sodium acetate 50 mM, structure 1TEN
[3] = GdnHCl, CD, Sodium acetate 50 mM, structure 1TTG

Chain of Fibronectin Y1573A, P02751 (P02751 whole entry Y1573A): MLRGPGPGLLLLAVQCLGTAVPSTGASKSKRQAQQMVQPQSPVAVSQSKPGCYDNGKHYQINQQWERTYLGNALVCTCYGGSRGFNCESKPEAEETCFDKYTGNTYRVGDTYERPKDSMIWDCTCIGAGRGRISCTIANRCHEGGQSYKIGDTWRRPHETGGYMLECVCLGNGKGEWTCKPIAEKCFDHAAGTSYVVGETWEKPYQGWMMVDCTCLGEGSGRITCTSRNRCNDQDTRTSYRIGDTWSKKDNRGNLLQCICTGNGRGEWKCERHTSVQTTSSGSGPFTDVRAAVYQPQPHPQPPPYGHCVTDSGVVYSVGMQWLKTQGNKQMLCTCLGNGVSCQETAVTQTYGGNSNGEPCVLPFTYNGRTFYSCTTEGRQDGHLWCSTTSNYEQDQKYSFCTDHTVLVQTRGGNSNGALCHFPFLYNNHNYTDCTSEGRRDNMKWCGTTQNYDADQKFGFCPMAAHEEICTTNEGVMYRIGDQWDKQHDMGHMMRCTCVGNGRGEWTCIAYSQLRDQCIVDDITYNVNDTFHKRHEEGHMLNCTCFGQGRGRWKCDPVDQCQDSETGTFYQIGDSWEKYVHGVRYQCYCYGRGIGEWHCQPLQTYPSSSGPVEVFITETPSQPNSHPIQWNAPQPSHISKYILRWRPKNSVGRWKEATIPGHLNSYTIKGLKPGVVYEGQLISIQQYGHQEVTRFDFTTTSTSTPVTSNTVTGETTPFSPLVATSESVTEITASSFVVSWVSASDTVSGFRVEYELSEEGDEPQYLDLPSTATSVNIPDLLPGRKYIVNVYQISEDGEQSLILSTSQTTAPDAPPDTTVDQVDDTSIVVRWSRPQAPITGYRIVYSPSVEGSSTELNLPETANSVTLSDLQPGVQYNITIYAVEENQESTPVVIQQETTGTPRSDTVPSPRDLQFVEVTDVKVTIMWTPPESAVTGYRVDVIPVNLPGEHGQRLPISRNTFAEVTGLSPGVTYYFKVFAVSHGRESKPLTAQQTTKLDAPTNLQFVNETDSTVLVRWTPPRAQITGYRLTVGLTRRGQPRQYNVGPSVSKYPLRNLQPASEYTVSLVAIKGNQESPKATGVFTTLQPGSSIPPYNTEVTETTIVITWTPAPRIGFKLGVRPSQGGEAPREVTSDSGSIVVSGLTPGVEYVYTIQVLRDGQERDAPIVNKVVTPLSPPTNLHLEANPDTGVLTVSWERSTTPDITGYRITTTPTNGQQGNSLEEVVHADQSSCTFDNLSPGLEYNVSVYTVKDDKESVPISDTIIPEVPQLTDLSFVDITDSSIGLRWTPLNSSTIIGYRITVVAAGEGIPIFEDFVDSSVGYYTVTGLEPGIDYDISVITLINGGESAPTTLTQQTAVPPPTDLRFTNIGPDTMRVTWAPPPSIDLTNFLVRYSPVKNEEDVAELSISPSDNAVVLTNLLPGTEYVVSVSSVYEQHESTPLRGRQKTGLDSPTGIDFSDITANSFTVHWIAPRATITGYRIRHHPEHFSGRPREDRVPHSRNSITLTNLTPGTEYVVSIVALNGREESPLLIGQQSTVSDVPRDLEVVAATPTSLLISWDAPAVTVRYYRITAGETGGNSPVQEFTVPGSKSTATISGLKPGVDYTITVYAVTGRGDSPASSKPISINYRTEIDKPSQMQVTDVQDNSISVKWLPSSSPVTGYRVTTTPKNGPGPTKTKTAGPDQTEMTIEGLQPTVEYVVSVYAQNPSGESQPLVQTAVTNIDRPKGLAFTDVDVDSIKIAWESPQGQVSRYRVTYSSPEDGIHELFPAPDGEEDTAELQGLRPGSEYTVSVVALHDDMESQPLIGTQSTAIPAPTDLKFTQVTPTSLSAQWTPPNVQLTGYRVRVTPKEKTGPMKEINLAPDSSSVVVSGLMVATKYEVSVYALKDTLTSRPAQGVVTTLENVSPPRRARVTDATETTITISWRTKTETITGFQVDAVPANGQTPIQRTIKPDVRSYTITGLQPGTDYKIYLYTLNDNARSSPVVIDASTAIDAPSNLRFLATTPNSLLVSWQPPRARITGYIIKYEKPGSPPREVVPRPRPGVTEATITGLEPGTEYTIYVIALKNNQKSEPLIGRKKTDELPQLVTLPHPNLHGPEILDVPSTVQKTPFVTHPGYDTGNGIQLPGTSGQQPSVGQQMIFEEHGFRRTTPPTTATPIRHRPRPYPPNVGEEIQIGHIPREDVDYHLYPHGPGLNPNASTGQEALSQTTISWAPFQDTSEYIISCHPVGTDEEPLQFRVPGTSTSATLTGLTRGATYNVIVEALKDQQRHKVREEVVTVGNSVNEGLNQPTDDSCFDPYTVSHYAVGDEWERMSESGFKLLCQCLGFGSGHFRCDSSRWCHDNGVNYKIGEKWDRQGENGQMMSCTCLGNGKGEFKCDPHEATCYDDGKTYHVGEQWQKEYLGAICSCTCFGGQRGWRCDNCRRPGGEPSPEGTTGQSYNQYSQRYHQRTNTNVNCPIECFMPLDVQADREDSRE
Chain of Fibronectin I1625A, P02751 (P02751 whole entry I1625A): as the sequence (P02751 whole entry Y1573A) above, with A1573Y, I1625A counted along it

Substance	ddG of mutation (higher = less stable) [1] [kcal/mol]	denaturant m value [1] [kcal/mol/M]	denaturant midpoint (higher = more stable) [1] [M]	ddG of mutation (higher = less stable) [2] [kcal/mol]	denaturant m value [2] [kcal/mol/M]	denaturant midpoint (higher = more stable) [2] [M]	ddG of mutation (higher = less stable) [3] [kcal/mol]	denaturant m value [3] [kcal/mol/M]	denaturant midpoint (higher = more stable) [3] [M]
Tenascin, P24821 E887A	-1.61	5.04	1.3	-1.61	1.2	6.64	–	–	–
Tenascin, P24821 I809V	0.18	4.21	1.2	0.18	1.3	5.17	–	–	–
Fibronectin Y1573A, P02751	–	–	–	–	–	–	2.29	7.9	1.12
Tenascin, P24821 A819G	2.8	2.31	1.3	2.8	1.3	3.03	–	–	–
Tenascin, P24821 I830V	0.32	2.63	1.2	0.32	1.2	5.06	–	–	–
Tenascin, P24821 S875A	–	–	–	-0.04	1.1	5.36	–	–	–
Tenascin, P24821 L873A	–	–	–	3.06	1.4	2.81	–	–	–
Fibronectin I1625A, P02751	–	–	–	–	–	–	0.35	6.03	1.42
